# Laboratory results: paper PMC6950786 (EBioMedicine, 2020)
# T1: GST-TNFAIP1(1–316) (UniProt Q13829 1-316)
# T1 sequence (looked up): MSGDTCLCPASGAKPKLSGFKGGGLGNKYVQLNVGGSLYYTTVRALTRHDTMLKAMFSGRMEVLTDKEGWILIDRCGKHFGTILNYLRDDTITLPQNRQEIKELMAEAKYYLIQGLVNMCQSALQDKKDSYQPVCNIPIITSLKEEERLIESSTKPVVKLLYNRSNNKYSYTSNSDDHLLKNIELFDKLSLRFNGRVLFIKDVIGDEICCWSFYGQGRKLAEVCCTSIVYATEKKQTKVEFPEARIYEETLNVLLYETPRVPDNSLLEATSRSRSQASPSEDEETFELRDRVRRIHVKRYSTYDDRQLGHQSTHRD
# Molecular target: T1, GST-TNFAIP1(1–316)
# Test: pull-down
binder,measurement,value
His-CSNK2B (natural protein) not shown,binding result,binds
